The values below come from the supplement of paper PMC9112550, “Optimization of the antimicrobial peptide Bac7 by deep mutational scanning” (BMC Biology, 2022).

This data set relates to Escherichia coli TOP10. As to the kind of experiment: shrunken log2 fold change of peptide-encoding DNA abundance (4.5 h post-induction vs induction); higher = less antimicrobial activity (less host growth inhibition). As to conditions: time post-induction: 4.5 h; library: site-saturation at positions 5, 18, 19, 20.
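Also: peptides expressed intracellularly from a pBAD plasmid library in pooled LB shake-flask culture, induced with 0.3% L-arabinose, DNA abundance read by NGS, three biological replicates, DESeq2 with apeglm shrinkage.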

In the case of RRIRERPPRLPRPRPRPFKMPRP, the “shrunken log2 fold change” value was -0.559.
To RRIRCRPPRLPRPRPRPYGHPRP belongs -0.0546; to RRIRLRPPRLPRPRPRPNEGPRP, 0.00337.
To RRIRWRPPRLPRPRPRPIICPRP belongs -0.523; to RRIRCRPPRLPRPRPRPTEQPRP, -0.304; to RRIRGRPPRLPRPRPRPVVFPRP, 0.56.
As for RRIRMRPPRLPRPRPRPTMGPRP, the “shrunken log2 fold change” value turned out to be 0.253.
For RRIRGRPPRLPRPRPRPLDGPRP the value was 0.342; for RRIRPRPPRLPRPRPRPIRPPRP, 0.184.
Regarding RRIRFRPPRLPRPRPRPQDWPRP, the “shrunken log2 fold change” value is -0.12.
For RRIRHRPPRLPRPRPRPRFSPRP the value was -0.137; for RRIRRRPPRLPRPRPRPNSTPRP, -0.0128.
On to RRIRFRPPRLPRPRPRPLRMPRP, for which the “shrunken log2 fold change” value is 0.0542.
To RRIRQRPPRLPRPRPRPPEHPRP belongs 0.0412; to RRIRARPPRLPRPRPRPFNGPRP, 0.0657; to RRIRIRPPRLPRPRPRPANCPRP, -1.1.
With RRIRVRPPRLPRPRPRPWIFPRP, the “shrunken log2 fold change” value is -0.389.
On to RRIRNRPPRLPRPRPRPWRAPRP, for which the “shrunken log2 fold change” value is 0.0962.
As to RRIRARPPRLPRPRPRPLHEPRP, the “shrunken log2 fold change” value was determined as 0.314.
As for RRIRVRPPRLPRPRPRPILYPRP, the “shrunken log2 fold change” value is 0.0692.
For RRIRWRPPRLPRPRPRPWYGPRP the value was -0.34; for RRIRGRPPRLPRPRPRPWWFPRP, -0.03; for RRIRNRPPRLPRPRPRPGQWPRP, 0.244.
For RRIRQRPPRLPRPRPRPQYWPRP the value was -0.0582; for RRIRGRPPRLPRPRPRPHNIPRP, -0.386; for RRIRKRPPRLPRPRPRPDKAPRP, 0.0987.
On to RRIRNRPPRLPRPRPRPVSCPRP, for which the “shrunken log2 fold change” value is -0.129.
To RRIRIRPPRLPRPRPRPFLKPRP belongs -0.341.
For RRIRWRPPRLPRPRPRPQAFPRP the value was 0.0509; for RRIRQRPPRLPRPRPRPKPSPRP, 0.159; for RRIRHRPPRLPRPRPRPFYSPRP, -0.00674.
To RRIRYRPPRLPRPRPRPTNPPRP belongs -0.165; to RRIRNRPPRLPRPRPRPLCSPRP, -0.0294.
As for RRIRSRPPRLPRPRPRPGRCPRP, the “shrunken log2 fold change” value came out at 0.247.
As for RRIRSRPPRLPRPRPRPNWTPRP, the “shrunken log2 fold change” value was -0.000246.
For RRIRARPPRLPRPRPRPNCNPRP the value was -0.116; for RRIRQRPPRLPRPRPRPEGRPRP, 0.00666.
To RRIRWRPPRLPRPRPRPGDPPRP belongs 1.14.
Regarding RRIRCRPPRLPRPRPRPIFNPRP, the “shrunken log2 fold change” value is -0.542.
For RRIRHRPPRLPRPRPRPNMTPRP the value was 0.0729; for RRIRPRPPRLPRPRPRPYASPRP, -0.0775; for RRIRSRPPRLPRPRPRPCTLPRP, -0.399.
For RRIRERPPRLPRPRPRPNYLPRP the value was -0.0974; for RRIRPRPPRLPRPRPRPGVKPRP, -0.0608.
For RRIRDRPPRLPRPRPRPKQTPRP the value was 0.0941.
As to RRIRSRPPRLPRPRPRPMMLPRP, the “shrunken log2 fold change” value was found to be 0.15.
As to RRIRLRPPRLPRPRPRPMFPPRP, the “shrunken log2 fold change” value is -0.281.
To RRIRMRPPRLPRPRPRPVWSPRP belongs 0.709; to RRIRPRPPRLPRPRPRPEWCPRP, -0.0771; to RRIRWRPPRLPRPRPRPWSCPRP, -0.169.
For RRIRQRPPRLPRPRPRPQRCPRP the value was 0.0862; for RRIRPRPPRLPRPRPRPHAVPRP, 0.0549; for RRIRYRPPRLPRPRPRPSEGPRP, 0.0169.
RRIRSRPPRLPRPRPRPPAKPRP: the “shrunken log2 fold change” value worked out at 1.05.
For RRIRNRPPRLPRPRPRPYACPRP the value was -0.167.
For RRIRCRPPRLPRPRPRPPVDPRP the value was 0.787.
For RRIRDRPPRLPRPRPRPTTDPRP the value was 0.547; for RRIRKRPPRLPRPRPRPCDCPRP, -0.0743.
For the sequence RRIRSRPPRLPRPRPRPLVCPRP, the “shrunken log2 fold change” value is 0.0734.
RRIRARPPRLPRPRPRPCAQPRP: the “shrunken log2 fold change” value was determined as 0.483.
For RRIRPRPPRLPRPRPRPLEQPRP the value was 0.169.
As for RRIRLRPPRLPRPRPRPILPPRP, the “shrunken log2 fold change” value was -0.0368.
In the case of RRIRWRPPRLPRPRPRPEIWPRP, the “shrunken log2 fold change” value stood at 1.
To RRIRIRPPRLPRPRPRPMMDPRP belongs -0.132.
For RRIRDRPPRLPRPRPRPCQSPRP the value was -0.121; for RRIRKRPPRLPRPRPRPYPSPRP, 0.0794; for RRIRDRPPRLPRPRPRPETRPRP, 1.11.
For RRIRGRPPRLPRPRPRPIDWPRP, the “shrunken log2 fold change” value is 0.559.
For RRIRKRPPRLPRPRPRPMNKPRP the value was 0.0136; for RRIRKRPPRLPRPRPRPFNRPRP, -0.203; for RRIRFRPPRLPRPRPRPRFQPRP, 0.0731.
With RRIRMRPPRLPRPRPRPHSEPRP, the “shrunken log2 fold change” value was 0.134.
On to RRIRKRPPRLPRPRPRPMTGPRP, for which the “shrunken log2 fold change” value amounted to 0.0188.
For RRIRIRPPRLPRPRPRPWQHPRP the value was 0.0851; for RRIRRRPPRLPRPRPRPKFSPRP, 0.0704; for RRIRDRPPRLPRPRPRPKRFPRP, -0.017.
For RRIRIRPPRLPRPRPRPDVDPRP the value was -0.297.
To RRIRSRPPRLPRPRPRPFHEPRP belongs -0.263; to RRIRDRPPRLPRPRPRPAPDPRP, 0.533.
Turning to RRIRPRPPRLPRPRPRPKYQPRP, the “shrunken log2 fold change” value was -0.411.
Consider RRIRLRPPRLPRPRPRPHVRPRP, for which the “shrunken log2 fold change” value is 0.0652.
To RRIRARPPRLPRPRPRPLFVPRP belongs 0.0919.
RRIRDRPPRLPRPRPRPTPIPRP: the “shrunken log2 fold change” value amounted to 0.103.
For RRIRYRPPRLPRPRPRPTACPRP the value was -0.13; for RRIRHRPPRLPRPRPRPWDGPRP, -0.0969; for RRIRSRPPRLPRPRPRPAAPPRP, 0.66.
To RRIRYRPPRLPRPRPRPHDFPRP belongs -0.167.
For RRIRFRPPRLPRPRPRPWSTPRP the value was -0.0601.
Regarding RRIRIRPPRLPRPRPRPFKDPRP, the “shrunken log2 fold change” value was -0.0121.
For RRIRCRPPRLPRPRPRPLYEPRP the value was -0.43; for RRIRTRPPRLPRPRPRPEFIPRP, 0.0102; for RRIRTRPPRLPRPRPRPTMTPRP, -0.0413.
To RRIRYRPPRLPRPRPRPDFNPRP belongs -1.62; to RRIRPRPPRLPRPRPRPQPEPRP, 0.47.
For RRIRCRPPRLPRPRPRPREEPRP the value was 1.43; for RRIRKRPPRLPRPRPRPCYEPRP, -0.311.
Turning to RRIRVRPPRLPRPRPRPDRGPRP, the “shrunken log2 fold change” value was -0.0555.
On to RRIRCRPPRLPRPRPRPMMNPRP, for which the “shrunken log2 fold change” value is -0.278.
As to RRIRMRPPRLPRPRPRPEYDPRP, the “shrunken log2 fold change” value was determined as 2.81.
For RRIRGRPPRLPRPRPRPLKRPRP the value was 0.216; for RRIRDRPPRLPRPRPRPFRRPRP, 0.0456.
To RRIRARPPRLPRPRPRPSVGPRP belongs 0.324; to RRIRNRPPRLPRPRPRPSQSPRP, -0.169; to RRIRFRPPRLPRPRPRPASSPRP, -0.204.
Consider RRIRDRPPRLPRPRPRPHYAPRP, for which the “shrunken log2 fold change” value was -0.00151.
For RRIRVRPPRLPRPRPRPHDDPRP the value was -0.162; for RRIRFRPPRLPRPRPRPFEGPRP, 0.0456; for RRIRKRPPRLPRPRPRPTQIPRP, 0.412.
On to RRIRWRPPRLPRPRPRPHAPPRP, for which the “shrunken log2 fold change” value is 0.517.
As for RRIRGRPPRLPRPRPRPCLFPRP, the “shrunken log2 fold change” value turned out to be 0.346.
To RRIRGRPPRLPRPRPRPVYMPRP belongs 0.361; to RRIRDRPPRLPRPRPRPGAGPRP, 0.914.
For RRIRCRPPRLPRPRPRPLHLPRP the value was -0.302; for RRIRVRPPRLPRPRPRPNAKPRP, 0.328.
For RRIRIRPPRLPRPRPRPPHGPRP the value was -0.0482; for RRIRRRPPRLPRPRPRPITNPRP, -0.19.
For the sequence RRIRHRPPRLPRPRPRPVLDPRP, the “shrunken log2 fold change” value was -0.116.
To RRIRWRPPRLPRPRPRPMTQPRP belongs 0.0159.
RRIRWRPPRLPRPRPRPGREPRP: the “shrunken log2 fold change” value came to 0.412.
To RRIRWRPPRLPRPRPRPKAMPRP belongs 0.176; to RRIRVRPPRLPRPRPRPATHPRP, -0.0884; to RRIRGRPPRLPRPRPRPAQEPRP, 0.547.
On to RRIRRRPPRLPRPRPRPSVVPRP, for which the “shrunken log2 fold change” value is 0.15.
To RRIRCRPPRLPRPRPRPLYIPRP belongs -0.882; to RRIRDRPPRLPRPRPRPSGFPRP, 0.029.
